Test results published in the DeepSol protein solubility set.

Assay: soluble on expression in E. coli; label from the status in PepcDB or PDB records

Sequence	soluble on expression in E. coli
SNAIMAKTAKVAVSQIVEHPALDATRQGLLDGLKAKGYEEGKNLEFDYKTAQGNPAIAVQIARQFVGENPDVLVGIATPTAQALVSATKTIPIVFTAVTDPVGAKLVKQLEQPGKNVTGLSDLSPVEQHVELIKEILPNVKSIGVVYNPGEANAVSLMELLKLSAAKHGIKLVEATALKSADVQSATQAIAEKSDVIYALIDNTVASAIEGMIVAANQAKTPVFGAATSYVERGAIASLGFDYYQIGVQTADYVAAILEGKEPGSLDVQVAKGSDLVINKTAAEQLGITIPEAVLARATSTK	soluble
SNALQPNMRTRVCTVINNNIAHEWTLARIASELLMSPSLLKKKLREEETSYSQLLTECRMQRALQLIVIHGFSIKRVAVSCGYHSVSYFIYVFRNYYGMTPTEYQERSAQRLSNRDSAAS	soluble
SNAMAALPDKEKLLRNFTRCANWEEKYLYIIELGQRLAELNPQDRNPQNTIHGCQSQVWIVMRRNANGIIELQGDSDAAIVKGLMAVVFILYHQMTAQDIVHFDVRPWFEKMALAQHLTPSRSQGLEAMIRAIRAKAATLS	soluble
SNAMKFLTVSDDMNFLRQVNTLVAGKGDMDSVIIGEGDAKGLGSKVLYRAKKGTPFDAVSEGILKIAGNYDYIAIGSTEVGREIAGYLSFKTGFYTATEIFSLEFNGQKAHTKRFFYGGKTVIEEESDARILTVAPGVIEAKDLGTTPEIRDLEIGQSRIKITKFV	soluble
SNAMKIIFSASPANRAAAYALRQAVFVEERGISADVEFDVKDTDQCEYAVLYLQPDLPITTLRLEPQADHVMRFGRVCTRKAYRGHGWGRQLLTAAEEWATQRGFTHGEIHGELTAQRFYELCGYRVTAGPYDEDGAPVVIMHKQLL	soluble
SNAMKLTPNFYRDRVCLNVLAGSKDNAREIYDAAEGHVLVGVLSKNYPDVASAVVDMRDYAKLIDNALSVGLGAGDPNQSAMVSEISRQVQPQHVNQVFTGVATSRALLGQNETVVNGLVSPTGTPGMVKISTGPLSSGAADGIVPLETAIALLKDMGGSSIKYFPMGGLKHRAEFEAVAKACAAHDFWLEPTGGIDLENYSEILKIALDAGVSKIIPHIYSSIIDKASGNTRPADVRQLLEMTKQLVK	soluble
SNAMKLTPNYYRDRVCLNVLAGSKDNARAIYQAAEGHVLVGVLSKNYPDVDSAVKDMREYAALIDNALSVGLGAGDPRQSVMVSQISQQVQPQHVNQVFTGVGASRALLGQHDTVVNGLISPTGKVGYVKISTGPLSSQQKDAIVPVTTAIAMLKDMGGSSVKFFPMNGLDSIDEYRFVAEACAATGFWLEPTGGIDLDNFEQIVQIALDAGVTKVIPHIYSSIIDSKTGNTRPEDVKTLLDIVKKIVQ	soluble
SNAMKVKIYTRNGCPYCVWAKQWFEENNIAFDETIIDDYAQRSKFYDEMNQSGKVIFPISTVPQIFIDDEHIGGFTELKANADKILNKK	soluble
SNAMLNIVLFEPEIPPNTGNIIRLCANTGCQLHLIKPLGFTWDDKRLRRAGLDYHEFADIKHHHDYQAFLDSEKLDSTQPARLFALTTKGTPAHSAVSYQANDYLLFGPETRGLPAYILDALPAQQKIRIPMQADSRSMNLSNAVSVVVYEAWRQLGYPGALLKE	soluble
SNAMNHLPEKMRPYRDLLEKSAKEYVKLNVRKGKTGRYDSKIAGDPYFPKHETYPTDENGQPMKLLAQINFSHIPQLDGYPSSGILQFYISVHDDVYGLNFDDRCEQKNFRVIYFENIVENDDELVSDFSFIGTGECDFPILSEAAVEPVKSSEWVLPTDFQFEQYTGMETMEFFGQFGEDEEDIYNELAENGFGHKIGGYASFTQHDPREYAYKEHTIMLLQIDSDDDIDSMWGDVGIANFFITPEDLRKKDFSNVLYNWDCS	soluble
SNAMPSIRYPSTEFPALTGFTVPIPETWQPDPTMGTQFAARPHTPPQGFTPNIIGTVRRAATGALHNQRTELDQRATQLPDYAERGRTETTVDGFPAYHIEYAYRHHGTITIAQMITLVEVSHPHAVDIIQLTATCAGDQTADYWDTFRLMHADLTVQPHG	soluble
SNAMTKKKVYIVSHSHWDREWYLPYEEHHMRLIELVDNVLDLIENDPEFNSFHLDGQTIILDDYLQVRPEKKEAVKKAVQAGKLKIGPFYILQDDFLISSESNVRNMLIGHLESQKWGAPVQLGYFPDTFGNMGQTPQMMQLANLPAAAFGRGVKPIGFDNQVLESDYSSQYSEMWWEGPDQTKIFGLLFANWYSNGNEIPSEKEAAIAFWKQKLADVERYASTNHLLMMNGVDHQPVQRDITKAIALANELFPEYEFIHSNFDDYLKAVQEELPEDLGTVTGELTSQETDGWYTLANTSSARVYLKQWNTKVQRQLENIAEPLAAMAYEVTGDYPHDQFDYAWKTLLQNHPHDSICGCSVDEVHRGMMTRFENANDVGHFLADEATRQLTEAIDTSVFPEKAHPFVLFNTSGYQKTEVVTVEVEIERLPFYTGKPEDLYHELKQKATPDYQVIDPTGKAVASRIVKEDVRFGYDLPKDAFRQPYMAKYLTVELSVKEMAPFSWDSFALIQGETKAFEGSLLAQPATNEMENEFIQVKIENNGSLTIADKKTGETFSKLLTFEDTGDIGNEYIFFKPTEDQGITTENVTAEITNKENSPVKASYQIKQTVMLPVAADERLEEEQKAVREFRERLAQRSTTLRPFEITTMVTMIKESNQLFFETTINNQIKDHRLRVLFPTGMVTETHEADSIYEVVTRPNQVSDTWENPTNPQHQQAFVNVHDQNKGVTIFNEGLNEYEVLADGTIAVTLIRCVGELGDWGYFATPEAQCQGEYTFKYGLSLHGKPEERFATYQQAYSAQIPFTAATTARHEGKLAPNHVYLTTAEGPIGWTAVKRQEQTNHLVVRGFNLTAQNIPCELHKETQPATCLTNVLEEPLTPAIEVDAPLRPFEIRTWRFEK	soluble
SNAMTQQDFRTKVDNTVFGVRATALIVQNHKLLVTKDKGKYYTIGGAIQVNESTEDAVVREVKEELGVKAQAGQLAFVVENRFEVDGVSYHNIEFHYLVDLLEDAPLTMQEDEKRQPCEWIDLDKLQNIQLVPVFLKTALPDWEGQLRHIHLEE	soluble
SNANRDSLFNDPNAPVLGNPEGDVTVVEFFDYNCPYCRRAMAEVQGLVDADPNVRLVYREWPILGEGSDFAARAALAARQQGKYEAFHWALMGMSGKANETGVLRIAREVGLDTEQLQRDMEAPEVTAHIAQSMALAQKLGFNGTPSFVVEDALVPGFVEQSQLQDAVDRARKAA	soluble
SNAPLLLGKKAPNLYMTDTTGTYRYLYDVQAKYTILFFWDSQCGHCQQETPKLYDWWLKNRAKGIQVYAANIERKDEEWLKFIRSKKIGGWLNVRDSKNHTDFKITYDIYATPVLYVLDKNKVIIAKRIGYENLDDFLVQYEKSLKTK	soluble
SNAWIVPKNSVLFAMYGSIGETAINKIEVATNQAILGIIPKDNILESEFLYYILAKNKNYYSKLGMQTTQKNLNAQIVKSFKIPLPPLEEQKQIAKILTKI	not soluble
SNNCKENFLTSRYNKPVDEKQYNIPGKVTITTLQNIPVIYKRIVGSYKELELTNPLSELFQYGMEHDLLDKDSSFPLTIYHSHPDITTADNQRASSCIIIKQNVKQLDSEEIGLMEIPSGLYGVIHFEIRQKEYPDAWDFVYGNWLPSSGYLPANSFPFEVYLNNPLEDPLQKHIVDIYIPIEPIN	not soluble
SNPAAEAEFNILLATDSYKVTHYKQYPPNTSKVYSYFECREKKTENSKLRKVKYEETVFYGLQYILNKYLKGKVVTKEKIQEAKDVYKEHFQDDVFNEKGWNYILEKYDGHLPIEIKAVPEGFVIPRGNVLFTVENTDPECYWLTNWIETILVQSWYPITVATNSREQKKILAKYLLETSGNLDGLEYKLHDFGYRGVSSQETAGIGASAHLVNFKGTDTVAGLALIKKYYGTKDPVPGYSVPAAEHSTITAWGKDHEKDAFEHIVTQFSSVPVSVVSDSYDIYNACEKIWGEDLRHLIVSRSTQAPLIIRPDSGNPLDTVLKVLEILGKKFPVTENSKGYKLLPPYLRVIQGDGVDINTLQEVCVLY	not soluble
SNRLGIPALSGDTLSLLNTPSEILNAIISDIEKAEHEINMEFYIWHHGGLADSVASALIVAAKRGVTVNVLLDSAGSMDFFKSHWPKLLKQSGVNIVEALSVSPFRMFFRRLDLRLHRKIVVIDNRIAYTGSMNLVDPQYFKQNSGVGQWIDVMVRLTGPNVAILNTIHAWDWEVETGIRELPHLPECPASIDPFNHTTQVVPSGPGMPDDIIQQV	not soluble
SNTTEILTSVDVLGTHSQTGTQQSNMYTSTQKTELEIDNKDSVTECSKDMKEDGLSFVDIVLSKAASALDEKEKQLAVANEIIRSLSDEVMRNEIRITSLQGDLTFTKKCLENARSQISEKDAKINKLMEKDFQVNKEIKPY	soluble
SNVRATYTVIFKNASGLPNGYDNWGWGCTLSYYGGAMIINPQEGKYGAVSLKRNSGSFRGGSLRFDMKNEGKVKILVENSEADEKFEVETISPSDEYVTYILDVDFDLPFDRIAFQDAPGNGDRIWIKNLVHSTGSADDFVDPINLEHHHHHH	soluble
SPLEQRSQHCKPEEGLEARGEALGLVGAQAPATEEQEAASSSSTLVEVTLGEVPAAESPDPPQSPQGASSLPTTMNYPLWSQSYEDSSNQEEEGPSTFPDLESEFQAALSRKVAKLVHFLLLKYRAREPVTKAEMLGSVVGNWQYFFPVIFSKASDSLQLVFGIELMEVDPIGHVYIFATCLGLSYDGLLGDNQIMPKTGFLIIILAIIAKEGDCAPEEKIWEELSVLEVFEGREDSIFGDPKKLLTQYFVQENYLEYRQVPGSDPACYEFLWGPRALIETSYVKVLHHMVKISGGPRISYPLLHEWALREGEE	soluble
SPMAVEEVIEMQGLSLDPTSHRVMAGEEPLEMGPTEFKLLHFFMTHPERVYSREQLLNHVWGTNVYVEDRTVDVHIRRLRKALEPGGHDRMVQTVRGTGYRFSTRF	soluble
SPRGLELLIAQTILQGFDAQYGRFLEVTSGAQQRFEQADWHAVQQAMKNRIHLYDHHVGLVVEQLRCITNGQSTDAEFLLRVKEHYTRLLPDYPRFEIAESFFNSVYCRLFDHRSLTPERLFIFSSQPERRFRTIPRPLAKDFHPDHGWESLLMRVISDLPLRLHWQNKSRDIHYIIRHLTETLGPENLSKSHLQVANELFYRNKAAWLVGKLITPSGTLPFLLPIHQTDDGELFIDTCLTTTAEASIVFGFARSYFMVYAPLPAALVEWLREILPGKTTAELYMAIGCQKHAKTESYREYLVYLQGCNEQFIEAPGIRGMVMLVFTLPGFDRVFKVIKDKFAPQKEMSAAHVRACYQLVKEHDRVGRMADTQEFENFVLEKRHISPALMELLLQEAAEKITDLGEQIVIRHLYIERRMVPLNIWLEQVEGQQLRDAIEEYGNAIRQLAAANIFPGDMLFKNFGVTRHGRVVFYDYDEICYMTEVNFRDIPPPRYPEDELASEPWYSVSPGDVFPEEFRHWLCADPRIGPLFEEMHADLFRADYWRALQNRIREGHVEDVYAYRRRQRFSVRYGEMLF	soluble
SPTNLANGLSSLLKPLKFFHLPIDEISLMLALSLRFVPTLMDETGKIMNAQRARGVDFGEGNIFQQMRSLVPIFIPQFIASFNRADELATAMESRGYRGAAKRTKFNRLKFK	not soluble
SQELTLSPGPAKLTPTLDPTHRMELILSTSPAELTLDPACQPKLPLDSTCQPEMTFNPGPTELTLDPEHQPEETPAPSLAELTLEPVHRRPELLDACADLINDQWPRSRTSRLHSLGQSSDAFPLCLMLLSPHPTLEAAPVVVGHARLSRVLNQPQSLLVETVVVARALRGRGFGRRLMEGLEVFARARGFRKLHLTTHDQVHFYTHLGYQLGEPVQGLVFTSRRLPATLLNAFPTAPSPRPPRKAPNLTAQAAPRGPKGPPLPPPPPLPECLTISPPVPSGPPSKSLLETQYQNVRGRPIFWMEKDI	soluble
